From doi:10.1101/2023.05.24.542197 come the findings set out here.

Some results are limits rather than exact numbers.

The assay concerns the target Dicer (endogenous human Dicer) (human (endogenous in HeLa and HEK 293T)) (UniProt Q9UPY3). Put plainly: proximity ligation.
Sequence of UniProt Q9UPY3 (Q9UPY3 whole entry): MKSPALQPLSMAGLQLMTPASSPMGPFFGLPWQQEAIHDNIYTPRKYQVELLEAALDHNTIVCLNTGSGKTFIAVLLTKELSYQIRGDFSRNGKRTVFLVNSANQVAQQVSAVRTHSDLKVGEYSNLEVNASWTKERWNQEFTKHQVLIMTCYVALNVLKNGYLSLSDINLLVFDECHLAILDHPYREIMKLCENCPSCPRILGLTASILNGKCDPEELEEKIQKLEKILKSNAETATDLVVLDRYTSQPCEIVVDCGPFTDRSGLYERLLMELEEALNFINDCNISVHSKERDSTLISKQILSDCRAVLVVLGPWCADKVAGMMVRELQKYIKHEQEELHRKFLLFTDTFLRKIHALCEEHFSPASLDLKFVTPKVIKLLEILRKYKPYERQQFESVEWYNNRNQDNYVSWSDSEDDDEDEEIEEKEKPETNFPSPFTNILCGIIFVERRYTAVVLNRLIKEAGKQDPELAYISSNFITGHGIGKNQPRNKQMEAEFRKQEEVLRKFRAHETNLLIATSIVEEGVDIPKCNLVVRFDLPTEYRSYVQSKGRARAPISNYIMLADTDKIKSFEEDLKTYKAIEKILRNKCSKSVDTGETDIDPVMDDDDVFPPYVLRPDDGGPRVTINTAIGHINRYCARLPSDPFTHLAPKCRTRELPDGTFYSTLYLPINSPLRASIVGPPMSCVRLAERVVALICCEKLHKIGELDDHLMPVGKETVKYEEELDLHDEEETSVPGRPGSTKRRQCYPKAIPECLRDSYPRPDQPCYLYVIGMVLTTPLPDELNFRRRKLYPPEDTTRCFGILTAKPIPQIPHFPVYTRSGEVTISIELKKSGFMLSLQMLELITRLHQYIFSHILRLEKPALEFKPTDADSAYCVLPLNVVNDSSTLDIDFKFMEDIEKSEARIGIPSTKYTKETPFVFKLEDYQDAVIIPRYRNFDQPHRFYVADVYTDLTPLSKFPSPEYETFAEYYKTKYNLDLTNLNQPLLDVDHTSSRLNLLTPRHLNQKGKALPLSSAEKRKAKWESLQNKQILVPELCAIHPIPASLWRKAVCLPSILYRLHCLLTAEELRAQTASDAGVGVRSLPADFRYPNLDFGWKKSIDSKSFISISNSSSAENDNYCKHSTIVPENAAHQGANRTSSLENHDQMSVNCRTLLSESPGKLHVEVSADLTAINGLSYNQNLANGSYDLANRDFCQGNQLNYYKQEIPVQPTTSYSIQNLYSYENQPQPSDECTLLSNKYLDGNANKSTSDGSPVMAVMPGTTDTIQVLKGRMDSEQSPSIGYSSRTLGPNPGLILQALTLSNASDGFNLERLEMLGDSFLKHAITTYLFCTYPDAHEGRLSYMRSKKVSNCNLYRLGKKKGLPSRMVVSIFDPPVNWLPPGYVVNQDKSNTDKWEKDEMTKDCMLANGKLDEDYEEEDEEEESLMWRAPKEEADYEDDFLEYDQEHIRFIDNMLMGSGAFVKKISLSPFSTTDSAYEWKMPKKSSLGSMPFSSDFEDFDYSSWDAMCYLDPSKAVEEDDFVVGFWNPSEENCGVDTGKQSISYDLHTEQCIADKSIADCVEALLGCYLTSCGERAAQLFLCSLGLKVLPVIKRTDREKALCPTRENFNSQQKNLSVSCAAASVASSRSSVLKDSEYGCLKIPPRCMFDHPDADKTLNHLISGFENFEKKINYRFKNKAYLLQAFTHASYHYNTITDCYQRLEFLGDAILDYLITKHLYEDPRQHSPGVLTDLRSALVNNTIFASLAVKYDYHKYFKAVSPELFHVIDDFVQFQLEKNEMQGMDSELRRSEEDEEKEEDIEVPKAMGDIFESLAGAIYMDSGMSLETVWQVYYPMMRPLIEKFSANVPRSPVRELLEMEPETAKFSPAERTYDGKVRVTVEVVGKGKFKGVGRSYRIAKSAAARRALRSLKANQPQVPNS

Turning to “Flag-Gag (pCI-Neo-Flag-Gag) (natural protein)”, the PLA proximity events in a cell (highest) (proximity events per cell) is < 36.
